Measurements taken from patent US20110212091A1.

Legend:
[1] = target: Recombinant human FGFR4-Fc (R&D Systems Cat # 685-FR) (human) (UniProt P22455); experiment: competition ELISA: FGFR4-Fc preincubated with soluble FGF1, binding to immobilized FGF2-heparin
[2] = target: Recombinant human FGFR4-Fc (R&D Systems Cat # 685-FR) (human) (UniProt P22455); experiment: competition ELISA: FGFR4-Fc preincubated with soluble FGF2, binding to immobilized FGF2-heparin

Row | Substance | IC50 [1] [nM] | IC50 [2] [nM]
1 | FGF1 (soluble) (from UniProt P05230 16-155) (ligand) | 0.733 | –
2 | recombinant human FGF2 (R&D Systems, Cat# 233-FB) (from UniProt P09038 143-288) (ligand) | – | 0.691
